From patent publication US20250027068

B1: PRT-434 (protein)
chain: MSQTEDSESLQRLRDIEDFQAEKKKQNVVYTKWLDGVDVKDHDFRKIVDGNIAYYATPLLNGRGFYDINKDFNRDSDKCAAAVAANMFHYWLDRNRDNVDRFLRQNPEKHGIIELPDGQLKLSDFLNTYESDDGYRDKSKLFDFISNNFNGPVWTDKLLDNYINGYAYNYKYGRTIEDPTKNTSKINFFKEVFNEKILTNNHSIRNQNEFSVLLSEALYTGKAIGLSYGPAGLRHGLGHIISVWGADLDADGNVVAIYVTDSDDKKLTIGDERVGLKRYKISTDDEGRLRLTAYEETHNTGGQIRGLWTLDTGKQAWADYFDKTEQTGTDQAEQ
B2: PRT-602 (protein)
chain: MANQEIRYSEVTPYHITSVWTKGVTPPANFTQGEDVFHAPYVANQGWYDITKTFNGKDDLLCGAATAGNMLHWWFDQNKDQIERYLEEHPEKQKINFNGEQMFDVKEAIDTKDSQTDSKLFEYFKEKAFPYLSTKHLGVFPDHVIDMFINGYRLSLTNHGPTPVKEGSKDPRGGIFDAVFTRGDQSKLLTSRHDFKEKTLKEISDLIKQELTEGKALGLSHTYANVRINHVINLWGADFDSEGNLKAIYVTDSDSNASIGMKKYYVGVNSAGKVAISAKEIEEDNIGAQVLGLFTLSTGQDIWNQTNLEHHHHHH
B3: PRT-479 (protein)
chain: MITSVWTKGVTPPTDFIYGEDVLHAPYKAGQGWYDITKAFDGGDDLLCGAATAGNMLHWWFDQNKEQIENYLKKHPEKQKINFNGEQMFDVKEAIDTKDSQTNSELFNYFKEKAFPYLSTKHLGVFPDHVIDMFINGYRLSLTNHGPTPVKRQEKDPRGGIFDAVFGRGDQTKLLTNRHDLKNKTLNEISQLIKQELTEGKALGISHTYANVRINHVINLWGADFDAEGNLEAIYVTDSDSNASIGMKKYFVGVNSNGKVAISAKEIEEDNIGAQVLGLFTLSTGQKIWNKTNLEHHHHHH
B4: PRT-477 (protein)
chain: MVTSVWTKGVTPPTNFTYGEDVLHAPYVANQGWYDITKTFNGKDDLLCGAATAGNMLHWWFDQNKEQIENYLKKHPEKQKINFNGEQMFDVKEAIDTKDSQLDSKLFEYFKEKAFPYLSTKHLGVFPDHVIDMFINGYRLSLTNHGPTPVKRGSKDPRGGIFDAVFTRGDQSKLLTNRHDLKNKTLKEISDLIKQELTEGKALGISHTYANVRINHVINLWGADFDAEGNLEAIYVTDSDSNASIGMKKYFVGVNSNGKVAISAKEIEEDNIGAQVLGLFTLSTGQDIWNQTNLEHHHHHH
B5: PRT-467 (protein)
chain: MITSVWTKGVTPPTDFIKGEDVFHAPYKAGQGWYDITKAFDGGDDLLCGAATAGNMLHWWFDQNKDQIERYLKEHPEKQKINFNGEQMFDVKEAIDTKDSQTNSELFNYFKEKAFPYLSTKHLGVFPDHVLDMFINGYRLSLTNHGPTPVKRQEKDPRGGIFDAVFGRGDQTKLLTSRHDLKNKTLNEISQLIKQELTEGKALGLSHTYANVRINHVINLWGADFDAEGNLEAIYVTDSDSNASIGMKKYFVGVNSAGKVAISAKEIKEDNIGAQVLGLFTLSTGQKIWNKTNLEHHHHHH
B6: PRT-486 (protein)
chain: MVTSVWTKGVTPPTDFIKGEDVFHAPYKAGQGWYDITKTFNGKDNLLCGAATAGNMLHWWFDQNKDQIERYLKEHPEKQKIIFNNQELFDLKAAIDTKDSQTDSKLFEYFKEKAFPYLSTKHLGVFPDHVLDMFINGYRLSLTNHGPTPVKEGSKDKRGGIFDAVFTRGVQSKLLTSRHDFKEKTLKEISDLIKQELTEGKALGLSHTYANVRINHVINLWGADFDSEGNLKAIYVTDSDTNASIGMKKYFVGVNSAGKVAISAKEIKEDNIGAQVLGLFTLSTGQDIWNQTNLEHHHHHH
B7: PRT-525 (protein)
chain: MITSVWTKGVTPPAKFTQGEDVFHAPYVANQGWYDITKTFNGKDNLLCGAATAGNMLHWWFDQNKEEIEAYLKKHPEKQKIIFNNQELFDLKAVINTKDSQTNSALFNYFKDKAFPNLSARRLGVFPDLVLDMFINGYYLNVYKTQTTDVNRTYQTKDRRGGIFDAVFTRGVQSKLLTERHDLKNKTLKEISDLIKQELTEGKALGLSHTYANVRINHVINLWGADFDSNGNLEAIYVTDSDTNASIGMKKYFVGVNSAGKVAISAKEIKEDNIGAQVLGLFTLSTGQDIWNQTNLEHHHHHH
B8: PRT-522 (protein)
chain: MITSVWTKGVTPPTDFIKGEDVFHAPYKAGQGWYDITKTFNGKDNLLCGAATAGNMLHWWFDQNKEEIEAYLKKHPEKQKIIFNNQELFDLKAVINTKDSQTNSALFNYFKDKAFPNLSARRLGVFPDLVLDMFINGYYLNVYKTQTTDVNRTYQTKDRRGGIFDAVFTRGVQSKLLTERHDFKEKTLKEISDLIKQELTEGKALGLSHTYANVRINHVINLWGADFDSNGNLEAIYVTDSDTNASIGMKKYFVGVNSAGKVAISAKEIKEDNIGAQVLGLFTLSTGQDIWNQTNLEHHHHHH
B9: PRT-504 (protein)
chain: MITSVWTKGVTPPTDFIKGEDVFHAPYKAGQGWYDITKAFDGGDDLLCGAATAGNMLHWWFDQNKEYIEAYLKKHPEKQKIMFGDQELLDVRKAINTKGSQKNSELFNYFRDKAFPNLSARRLGVMPDLVLDMFINGYYLNVTKTQTTDVNRTYQEKDKRGGIFDAVFTRGDQSKLLTSRHDLKNKGLNEISQLIKQELTEGKALGLSHTYANVRINHVINLWGADFDADGNLEAIYVTDSDSNASIGMKKYFVGVNSAGKVAISAKEIKEDNIGAQVLGLFTLSTGQDIWNQTNLEHHHHHH
B10: PRT-518 (protein)
chain: MVTSVWTKGVTPPTDFIKGEDVFHAPYKAGQGWYDITKTFNGKDNLLCGAATAGNMLHWWFDQNKEYIEAYLKKHPEKQKIIFNNQELFDLKAAINTKGSQKNSELFNYFRDKAFPNLSARRLGVFPDLVLDMFINGYYLNVTKTQTTDVNRTYQEKDKRGGIFDAVFTRGVQSKLLTSRHDFKEKGLKEISDLIKQELTEGKALGLSHTYANVRINHVINLWGADFDSDGNLKAIYVTDSDTNASIGMKKYFVGVNSAGKVAISAKEIKEDNIGAQVLGLFTLSTGQDIWNQTNLEHHHHHH
B11: PRT-693 (protein)
chain: MQITSVWTKGVIPPTPEQFRYNNEDVIHAPYLPNQGWYDITKTFNGGDNLLCGAATAGNMLHWWFDQNKTEIEAYLSKYPEKQKIIFNNQELFDLRAAINTKDSQTNSQLFNYFRDKAFPNLSARQLGVMPDLVLDMFINGYYLNVFKTQSTDVNRPYQDRDKRGGIFDHVFGRGDQTTLLTARHDLKNGTLNDISTLIKQELQSGKALALSHTYANVSISHVINLWGADFNAEGNLEAIYVTDSDANSSIGMKKYYVGVNAHGKVAISAKKIEGENIGAQVLGLFTLSSGKEIWQKLSLEHHHHHH
B12: PRT-685 (protein)
chain: MQITSVWTKGVTPLTPEQFRNNNEDVIHAPYLPNQGWYDITKAFNGKDNLLCGAATAGNMLHWWFDQNKEEIEAYLKKYPEKQKIIFNNQELFDLRKAINTKDSQTNSALFNYFRDKAFPNLSARQLGVMPDLVLDMFINGYYLNVFKTQSTDVNRPYQDKDKRGGIFDHVFNRGDQTTLLTARHDLKNKTLNDISTIIKQELSSGKALALSHTYANVSISHVINLWGADFNAEGNLEAIYVTDSDANASIGMKKYYVGRNAHGHVAISAKKIEGENIGAQVLGLFTLSSGKEIWQKLSLEHHHHHH
B13: PRT-452 (protein)
chain: MVTSVWTKGVTPPANFTQGEDVFHAPYKANQGWYDITKAFDGGDDLLCGAATAGNMLHWWFDQNKDQIEAYLKEHPEKQKINFNGEQMFDVKEAIDTKDDQTNSELFNYFKEKAFPYLSTKHLGVFPDHVLDMFINGYRLSLTNHGPTPVKEGSKDPRGGIFDAVFTRGDQSKLLTSRHDLKNKTLKEISDLIKQELTEGKALALSHTYANVRINHVINLWGADFDSNGNLEAIYVTDSDSNASIGMKKYFVGVNSAGKVAISAKEIEDDNIGAQVLGLFTLSTGQDIWNQTNLEHHHHHH
B14: PRT-483 (protein)
chain: MVTSVWTKGVTPPTDFIKGEDVFHAPYKAGQGWYDITKTFNGKDNLLCGAATAGNMLHWWFDQNKDQIEAYLKEHPEKQKIIFNNQELFDLKAAIDTKDDQTNSKLFEYFKEKAFPYLSTKHLGVFPDHVLDMFINGYRLSLTNHGPTPVKEGSKDKRGGIFDAVFTRGVQSKLLTSRHDLKNKTLKEISDLIKQELTEGKALALSHTYANVRINHVINLWGADFDSNGNLEAIYVTDSDTNASIGMKKYFVGVNSAGKVAISAKEIEDDNIGAQVLGLFTLSTGQDIWNQTNLEHHHHHH

The proteins below were run against pooled human IgG (human IgG1, 2, 3 and 4).
With B1 the Enzyme Activity Endpoint Assay (purified): Fab′2 was 567 ng/µL, the Enzyme Activity Endpoint Assay (purified): Fc was 314 ng/µL and the Enzyme Activity Endpoint Assay (purified): IgG was 0 ng/µL. It also gave an Enzyme Activity Endpoint Assay (purified): scIgG of 234 ng/µL, an Enzyme Activity Endpoint Assay: Fab′2 of 567 ng/µL and an Enzyme Activity Endpoint Assay: Fc of 314 ng/µL. It also gave an Enzyme Activity Endpoint Assay: IgG of 0 ng/µL and an Enzyme Activity Endpoint Assay: scIgG of 234 ng/µL.
For B2, the Enzyme Activity Endpoint Assay (purified): Fab'2 was 543 ng/µL, the Enzyme Activity Endpoint Assay (purified): Fc was 375 ng/µL and the Enzyme Activity Endpoint Assay (purified): IgG was 0 ng/µL. The Enzyme Activity Endpoint Assay (purified): scIgG was 212 ng/µL, the Enzyme Activity Endpoint Assay: Fab′2 was 543 ng/µL and the Enzyme Activity Endpoint Assay: Fc was 375 ng/µL. The Enzyme Activity Endpoint Assay: IgG was 0 ng/µL and the Enzyme Activity Endpoint Assay: scIgG was 212 ng/µL.
B3 gave an Enzyme Activity Endpoint Assay: Fab′2 of 1340 ng/µL, an Enzyme Activity Endpoint Assay: Fc of 481 ng/µL and an Enzyme Activity Endpoint Assay: IgG of 0 ng/µL. It also gave an Enzyme Activity Endpoint Assay: scIgG of 0 ng/µL.
Work on B4 yielded an Enzyme Activity Endpoint Assay: Fab′2 of 543 ng/µL, an Enzyme Activity Endpoint Assay: Fc of 277 ng/µL and an Enzyme Activity Endpoint Assay: IgG of 0 ng/µL. For the same protein, the Enzyme Activity Endpoint Assay: scIgG was 224 ng/µL.
In the case of B5, the Enzyme Activity Endpoint Assay: Fab′2 is reported as 685 ng/µL, the Enzyme Activity Endpoint Assay: Fc is reported as 374 ng/µL and the Enzyme Activity Endpoint Assay: IgG is reported as 57 ng/µL. The Enzyme Activity Endpoint Assay: scIgG was 375 ng/µL.
In the case of B6, the Enzyme Activity Endpoint Assay: Fab′2 is reported as 145 ng/µL, the Enzyme Activity Endpoint Assay: Fc is reported as 210 ng/µL and the Enzyme Activity Endpoint Assay: IgG is reported as 107 ng/µL. It also gave an Enzyme Activity Endpoint Assay: scIgG of 627 ng/µL.
In the case of B7, the Enzyme Activity Endpoint Assay: Fab′2 is reported as 1340 ng/µL, the Enzyme Activity Endpoint Assay: Fc is reported as 386 ng/µL and the Enzyme Activity Endpoint Assay: IgG is reported as 0 ng/µL. For the same protein, the Enzyme Activity Endpoint Assay: scIgG was 0 ng/µL.
B8 gave an Enzyme Activity Endpoint Assay: Fab′2 of 736 ng/µL, an Enzyme Activity Endpoint Assay: Fc of 253 ng/µL and an Enzyme Activity Endpoint Assay: IgG of 0 ng/µL. The Enzyme Activity Endpoint Assay: scIgG was 0 ng/µL.
B9 showed an Enzyme Activity Endpoint Assay: Fab′2 of 1310 ng/µL, an Enzyme Activity Endpoint Assay: Fc of 442 ng/µL and an Enzyme Activity Endpoint Assay: IgG of 0 ng/µL. For the same protein, the Enzyme Activity Endpoint Assay: scIgG was 0 ng/µL.
In the case of B10, the Enzyme Activity Endpoint Assay: Fab′2 is reported as 1220 ng/µL, the Enzyme Activity Endpoint Assay: Fc is reported as 423 ng/µL and the Enzyme Activity Endpoint Assay: IgG is reported as 0 ng/µL. The Enzyme Activity Endpoint Assay: scIgG was 0 ng/µL.
B11 gave an Enzyme Activity Endpoint Assay: Fab′2 of 1280 ng/µL, an Enzyme Activity Endpoint Assay: Fc of 436 ng/µL and an Enzyme Activity Endpoint Assay: IgG of 0 ng/µL. For the same protein, the Enzyme Activity Endpoint Assay: scIgG was 0 ng/µL.
B12 was tested, and the Enzyme Activity Endpoint Assay: Fab′2 was 1200 ng/µL, the Enzyme Activity Endpoint Assay: Fc was 448 ng/µL and the Enzyme Activity Endpoint Assay: IgG was 0 ng/µL. It also gave an Enzyme Activity Endpoint Assay: scIgG of 0 ng/µL.
B13 gave an Enzyme Activity Endpoint Assay: Fab′2 of 0 ng/µL, an Enzyme Activity Endpoint Assay: Fc of 0 ng/µL and an Enzyme Activity Endpoint Assay: IgG of 1870 ng/µL. The Enzyme Activity Endpoint Assay: scIgG was 0 ng/µL.
In the case of B14, the Enzyme Activity Endpoint Assay: Fab′2 is reported as 1260 ng/µL, the Enzyme Activity Endpoint Assay: Fc is reported as 459 ng/µL and the Enzyme Activity Endpoint Assay: IgG is reported as 0 ng/µL. It also gave an Enzyme Activity Endpoint Assay: scIgG of 0 ng/µL.
